In the domain aggregation screens of Martell et al. (2025):

Assay: soluble fraction after stress (log2 fold change); higher = more stays soluble; pooled small domains, quantitative proteomics
Conditions: stress: 75 degC
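Further: 20 min heating vs room temperature control held 20 min.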

| Sequence | soluble fraction (log2) |
| --- | --- |
| HMTDFSDLSFKYNSEEKDVLNSINLKINGGEMTSLVGHSGAGKTTILNLIPRFYEKSKGDISIDGQSIY | 0.0241 |
| HMTDGLTVPMQGVVIRYKAKKGDKVAVGDAVAVLEAMKMEQNIFANKSGTIKEIYIKEGTTVTPGDVLMSI | -0.315 |
| HMTDLNDTQIKILELLSADASLSAAKMAGQLGIAGRNVEANIKKLKEKGILIRHGSPKSGYWEIVN | -0.349 |
| HMTDNSTTTIRNLKIEWLLEEIRNAVRTGVSVDAAVERISNNPFVKPPEDLLNEARIIFLQNAGQI | -0.79 |
| HMTDPVLYEERDDIAIITINRPEKKNTLTDAVIQGIADGIDAATKSADVVAVVLRGAGDTLTAGYDLTA | 0.213 |
| HMTDSDTQDIDVGELRVGHFVFLDLSWIRHPFPLSSFKIQSAEQIKTIRSLGLRRIRYSPGRSGP | -1.31 |
| HMTDSSEILEAALKEAEDAAHEVLNGTFSVQLEPQKAYIRRLQHMLIDRMNLSSTSKGKEPYRSLLVYR | -1.41 |
| HMTDTDVLSSRLSALSSGRTSAVRLRDGVLSLVLDVGGLSIEARKAMTTAIESTARATPGVEAVRIAET | -0.479 |
| HMTDTSFPRLGAPEEELLSFLAKWEIDAEDAHYTKFSLYYQSTGKMMRDWKATWRAWKERQSELNAQR | -2.33 |
| HMTDVGLEAAKAAALKHAGLSADQVTGLTAKLDWDDGQRVYEVDFWQGSTEYEYEINADGTVRQYESEAH | ≥ 1.04 |
| HMTDVRFIDIPVTEHHPWNGMKVRDLQLPPGTLLVFLSHPGEKNTVPHGETVLRSGDVLVLGATAYTGQ | -0.753 |
| HMTDVRFISIPIQKEHPWNRKLVSELNLPPGTLLVFLRRTGENIVPNGKTMIQEGDVLVLGASAYR | -1.31 |
| HMTEALEFTVEDLRMAGLVNSSFSRRRRELFSEKLGIGYGNGKSLLKKLNGYGITREEFNGAIQSLSD | -0.817 |
| HMTEIILTARSGRHAVRHRLEGLGYTLTPEELERVHQRFLAVADAKKEVFDEDLHALMADERGT | -0.219 |
| HMTEKMILKWKEALERMNDDFTTKDWLNVVIHEMGKSERTAYGWLSDMKRSGIIKDLGYGSWLKVLE | -1.37 |
| HMTEKPTREAHILDQLARDGGVLVAALSRELGVSEVTIRSDLRDLEAAGLLQRTHGGAQASSFQTVL | -0.0942 |
| HMTELNNTQRAAVLLLALDEDSAAEVFKHLSAREVQEVSQEMAKLGNISHDQMRQVLDDFYDESEQF | -0.127 |
| HMTELPLTPRSKRILEMSALEARRLNHSYIGTEHLLMAIIRDGDGVAAKILESLGVNLPNFYTDTVRSIE | 0.0533 |
| HMTELSLSEQAYQQLRRMIVRLDFAPGDVLREEALQEALGMSRTPIREALQRLAREHFVTVIPRRGMFVS | -3.15 |
| HMTELVIPDYFSKALAKNKKAKQVFEAFAYSHRKEYLQWITEAKTEETRNKRMATAIEWIAEGKGRNWKYA | -3.45 |
| HMTEPIESVTTIAGRRIPYRLVRSLRARRMRMTIKESQVTVTLPRGVPLGEAERFLQQNAAWLFKQLDKP | -2.63 |
| HMTESIHVGSKVTINNNAKRWATGQNIYSGVKGKTYTVIQMNGSRLLLDKVISWINKGDVHLPGS | -1.94 |
| HMTESIKRDEAIRLNNGRIYTLDAAKIGTNEYEVMLFNPRTGEEIDSAKTSTEADAILQFDRLRRMYHR | 0.0129 |
| HMTETELYDEVNRLIGLHLSERDRMILIMRDRDEFEIDAIAARTGLSEGNIRLILSRARRTVREAYRNNI | -4.11 |
| HMTETNSVTINERLTLYRRSRSGRWQARVKLNTGEWHRFSTGTADFEKAKESAHRELHNVGFRAENNLPQ | -1.16 |
| HMTFDWAAYEISEKEIRVMSLVAEGFSNKEIAQELFLSEGTVRNYISNILEKLGLRDRTQLAVHYLKAV | -3.83 |

| Sequence | soluble fraction (log2) |
| --- | --- |
| HMTFENMFIENSGETLDREFLVENLRGISWQSYDRSVDVLVSRLRGKLGETPNNTRFIKTIHGVGYKFIGE | 0.353 |
| HMTFGENLIRLRRQQGLSQEQLGMRIGVSRQTVSKWELNDTTPEMEKLIALADLFGLSLDELTGRV | -0.974 |
| HMTFNLDVDGDDQVTALGDGLMIIRKLFGATFAGDALTNKAISPDATRTTDEIHAYIEKGITSGVLD | -0.403 |
| HMTFPAILRELLEKHPQTGKRTTLKELGEAVGTRQQSISLYRNGDTQPSPDILVRIAAFFGVSVDYLL | -0.499 |
| HMTFPYTSLKDAPKNMKEIDGVPLTLDQVNQIAKVADSIGVSKEKNGYAIAKSQFKKSHHIENNRWVKNK | -0.179 |
| HMTFVHTQIEATKEWIISHPLDKHPAVAVVDSAGSIVIGEVDYISKSIVRLRFTAEFSGKAYL | -2.06 |
| HMTGAEGKLARYLLTVPSGEPLRLSATDLAKRLGISRASLYRAFQALEDARLIRREGKSMYVLDPAGLEGV | -0.723 |
| HMTGENWAERSRQLAAAGLLVLGKEAQEKIASLPNLIPLIEAAAASDTRLLNAQTIDELLSFVPTEETI | -0.104 |
| HMTGESVPAPLSGTIFKILVAPGEQVEEGQTVIILEAMKMETEISAPRSGVVGAINIKEGDSVQVGQSLFT | 0.232 |
| HMTGIKISVDRLQIGNYVKLPLNWKDHPFLFSSFAIKSQEEIDLIRRLGLKQVIMFPDKSSMPPKPV | -1.55 |
| HMTGLSNFEFNQIKLDLMHELTQTPLRLTDLVNRITSFENEKTITVIRFLVDEGILLLKDDTLSVAKID | -3.06 |
| HMTGMEAAEFGKRIMKLRKQKGMTQSKLAEQINVSNKAISRWETGEGFPEITLLKPLAKALGTTVDELFGE | -0.334 |
| HMTGMEKFLTIPSIRESTAAFEREYLIHYLDENAWQVSKTAAAIGIERTTLYKKMKQLGIVPIEE | -3.22 |
| HMTGNWRQMHKVKSKETIYGIAKEYGITVDELTKANPGMEAPGYTLKKGDYIFIPYATADANV | -0.432 |
| HMTGQEGLIGAHGVALTRLSNEEGEVKVQGEIWQARSDQEVAKGASIEVVHVDGLVLTVRPQH | -0.0319 |
| HMTGQLTEEELKQRQERAMSNPEIQGILSDPVMRQVLQDMSTDPKAAAEHQRNPTIMAKIQKLINAGIVQV | 0.00889 |
| HMTGSETLQDIFAHLEAGTVRTALSLIPRLDAVEYEQNRQRIAELAGVRPSALDDLRKQAKREEN | ≥ 1.04 |
| HMTGTKEQQVVMLNNILQKQLQAFELQGKRDYPMVTMKNMYNTLSKMVENAGLQTVESYFVDPIKGQQM | -0.694 |
| HMTGVEAIERYLASGVIPGVGPVLAKRLVERFGARTLEVIEDSPRRLTQVPGIGRQKARQIHQALKAQRE | -0.406 |
| HMTGYVMIRVDGLSLEKFLNMAAEAGVRVSDVRRASYTVLYAVVSPRDLKKLQSVAPEKYTVTVR | -1.18 |
| HMTHANAALTPRHRLKVARLVVDEGWPVSEVAARFQVSWPTVKRWADRYRAGQSMQDRSSRP | -1.96 |
| HMTHEAEDLNALRMMVRDPIFSSDEPDLQQLRGAVAHAPQFVDRFKELYNDYQRLAEFVQNSL | -0.993 |
| HMTHFRTDERRREILSTIEADGRVSVSEIASRFDVSPVTIRSDLNYLAIQGKLKRVRGGAVLLDH | -1.17 |
| HMTIDNPESQKIMDMVPFFFQSRNYDEAIEALTYVIEQEPQFSEAYNKRATFYFMMGDLENSMKDIEITLA | -0.29 |
| HMTIGIGKSLDFNTSGEKAYRIYNFKGAYVGTFKASDMTSLKNEVQKSNVKAGAYMVRSLDGHVNRLIEIK | -1.49 |
| HMTIGKIVNIIEGSYANVRSAPDQNSEPIGRAYPGDAFLVDPLGSSGDWVKVTYEGQSGFIFQAYISV | -3.94 |

| Sequence | soluble fraction (log2) |
| --- | --- |
| HMTIGKRIKRRRIELKMSIDSLARTIGKDRSTVYRYESGAIDKVSSDVLAKLATALNTTPAYLIGL | -4.61 |
| HMTIKNHIDEILKKEPFILENIKNGLINISALARQIEPQLSRKVGKKLNVNAIIMTIKRMEIDQLNK | -2.25 |
| HMTIPNGTVVNGTVLEAREAGAYLVRVAGQTLTAQANLPLLVGQHFRAVWDSSGDIPVLRLSDAEQALLGK | -0.362 |
| HMTIPRLPFAFAKRFGIVLDNRPSGFVAAHKEGLLPHVLLEVQRFLGDAYTLEVVSDDDFERILGQVYQT | -3.72 |
| HMTIPSYAEAVRYVRRQPRINTSTLADGLGIRWSLALDYLERMARSGVVGAIEDDGWWPVAR | -0.977 |
| HMTIRIPEEEYLTRAKRAAQMTAERGLDALFLFGSEGDFQNVRYFTSVTPIWERLGVVITASGKAAMLTGP | -0.145 |
| HMTIRPEDVELVPAEDGYMQGDVVSNIFKGVHYELEVKANGYDWMVHTTKYVEVGSHVGIKVIPFNIQV | 0.322 |
| HMTISPYTKDDFLKGTKPFEDVYAHKADPFVHDRALEQMTIWAKSVGVNGFKKLYKAYIDSLRIKNKEI | -0.315 |
| HMTKAGVDAWTRGDYAAAVKEWQAQAAKGDADAIFNLGQAFKLGKGVPQDLIKAEQLFGQAAA | 0.246 |
| HMTKDEIIIQSIIDAAKKLMQQYGLNKTTMEDIAKEAGKGKSTLYHYFKSKEEIFDQVINQEID | 0.0589 |
| HMTKEEFLDEIKKELGFMPYEEVIKAEKYFESYFNGSEADEKVIERFGSPKYAAQNYYRTHVAN | 0.029 |
| HMTKEEFLYELKKELSALDSAEATAYNLRYYSDYIDAEIAKGRSEQEVLDELGNPRWLVNSIKESG | -0.139 |
| HMTKGDRIKARREELGLTQTDLAEAISSTKQNIYKYENNIISNIPSDKVEAIAEVLKISPAYLMGWGDE | -0.0377 |
| HMTKGFSIQDISLSKSTMTFLQQNKITDLASLLSMSKSQIEGMKGFKPKMIQEIEKNLDKVGLVLAQD | -0.243 |
| HMTKGVKVEIGTEEASVDLYVVMEYGTPIQKAAYDAQESVRKAIETMTNLHVVRVDVHVQGVSF | -0.466 |
| HMTKGVWHTVKKGENLYRISLYYEVPQQEIKKANKIETENIVVGQKLFIPNTTKKSPIFALTP | -1.72 |
| HMTKIDYSINQIYSLRNIENITIVLKDKRSFTGKILKIYWQNGSKIILFTTETRNYKFKEYEISEIYKS | -1.02 |
| HMTKIEYTEQEFNDFIQAYKNNRKMFPEDYIVKTQVVFINKGFSKSQADMIIAQIETRLRLQGE | -2.91 |
| HMTKIKAIFFDIDGTIRSFKTKTIPENTANTLKKLKEQGIKIFIATGRAPFHTTFLNDLLDFKFDGYITIN | -0.659 |
| HMTKKSLFNQYLDDQKRLDIVTLQKAELVDLHKLADELNIDQYNQLKKNELIFKILQSNPSE | 0.162 |
| HMTKNEFLQGLKEELEGRVTHSAIQENIRYYDDYISQEVLKGSTEEEVTESLGGPRIIARTIVDAAYD | 0.0243 |
| HMTKPLHELLSQREFQVFTQLAAGRSVGEIAQQLSLSSNTVSTYRARILEKTGTRNDVELALYAIRR | -2.31 |
| HMTKPTLMEVEIKGAIQNPGVYTLKRNSSISKLIKMSGPLLENADTSSISFTHILQDKDVVVIPEIK | -0.194 |
| HMTKQEYLNQLKNELVKQGVADAEDVVTEYEQHFAFKLADGFGEEEIAKKLGDPAAIASQFVG | 0.669 |
| HMTKQMELLAQGAAKLSVDLNQRQLDQLQTYYRELVDWNQRMNLTAITQYEEVQVKHFLDSL | -0.477 |
